Columns and labels:
[1] = aggregation and purification amounts of deglycosylated antibodies, before and after φ; type: physicochemical; conditions: based on 100 ml culture
[2] = system: HEK293F cells transfected with wild-type clec14a; test: clec14a-mediated cell-cell contact (cell aggregate) assay; type: cell-based, human
From the text: In order to identify the mechanism by which deglyco C1 IgG acts on angiogenesis, the number of cell aggregates formed from HEK293F cells transfected with wild-type clec14a and cultured in the presence or absence of parent antibody IgG or deglyco C1 IgG was monitored to conduct functional assay on clec14a-mediated cell-cell contacts.
The parent antibody IgG was used as a positive control group to specifically block clec14a-mediated cell-cell contacts.

[3] = target: T1, hclec14-CTLD and hclec14a-ECD interaction (Homo sapiens, UniProt Q86T13); test: ELISA: interaction of hclec14a-CTLD-Fc-HRP with hclec14a-ECD; type: binding; conditions: increasing antibody concentration
T1 construct: hclec14a-CTLD-Fc-HRP was incubated together with purified hclec14a-ECD; hclec14a-ECD (extracellular domain of human clec14a); myc (C)
T1 sequence (Q86T13 33-173 limits assumed): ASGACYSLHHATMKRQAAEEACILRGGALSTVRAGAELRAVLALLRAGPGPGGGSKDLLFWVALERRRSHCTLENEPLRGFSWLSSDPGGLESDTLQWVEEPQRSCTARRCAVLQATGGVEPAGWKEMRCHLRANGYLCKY
Description: In addition, hclec14a-CTLD-Fc-HRP was incubated together with purified hclec14a-ECD in the presence of an increasing concentration of parent antibody IgG or deglyco C1 IgG, or in the absence thereof.

[4] = system: HUVECs; test: HUVEC viability (cell counting Kit-8); type: cell-based, human; conditions: 2 days
Description: In order to evaluate effects of deglyco C1 IgG on toxicity of endothelial cells, after treatment with deglyco C1 IgG, viability of HUVECs was measured. Viability was measured in accordance with the manufacturer's manual through cell counting Kit-8 (#CK04-13, Dojindo Laboratories, Kumamoto, Japan).

[5] = system: VEGF-dependent tube formation; test: VEGF-dependent HUVEC tube formation assay; type: cell-based, human; conditions: 20 μg ml^−1, 18 hours
Description: In order to investigate in vitro effects of deglyco C1 IgG on VEGF-dependent angiogenesis, HUVECs were treated with VEGF in the presence or absence of deglyco C1 IgG, and then HUVEC tube formation assay was conducted. 150 μl of Matrigel was added to a 48-well plate and incubated at 37° C. for 30 minutes. HUVEC (10^5) cultured in EGM-2 were collected, seeded on the Matrigel-coated plate and incubated at 37° C. for 18 hours in the presence or absence of clone 1 IgG, parent antibody IgG, deglycosylated clec14a-CTLD IgG or bevacizumab. HUVECs cultured in VEGF-containing EBM (endothelial cell basal medium) were seeded to the Matrigel-coated plate and incubated at 37° C. for 18 hours in the presence or absence of deglyco C1 IgG (20 μg ml^−1).

[6] = system: VEGF-dependent microvessel formation; test: mouse Matrigel plug assay, VEGF-dependent microvessel formation; type: in vivo
Description: In order to observe in vivo efficacies of deglyco C1 IgG on VEGF-dependent angiogenesis, a mouse Matrigel model was established, hemoglobin level was measured as a marker of microvessel formation, and inhibitory activities against microvessel formation of deglyco C1 IgG and bevacizumab were compared by a mouse Matrigel plug assay.

[7] = system: CFPAC-1 cells; test: tumor cell-derived Matrigel plug angiogenesis assay; type: in vivo, mouse; conditions: single dose of 10 mg/kg, 2 weeks, nude mice
Description: (§1) In order to investigate in vivo effects of deglyco C1 IgG on tumor angiogenesis, tumor cell-derived Matrigel plug angiogenesis assay was conducted on thymus-removed nude mice. SNU182- and CFPAC-1 cells and U87 human glioma cells containing Matrigel were transplanted into thymus-removed nude mice in the presence of deglyco C1 IgG and bevacizumab with a single dose of 10 mg/kg or in the absence thereof. 2 weeks later, the Matrigel plug was removed and the total hemoglobulin content of each group was measured with an ELISA reader.

[8] = system: SNU182 cells; test: as above; type: in vivo, mouse; conditions: single dose of 10 mg/kg, 2 weeks, nude mice
Description: as §1

[9] = system: U87 human glioma cells; test: as above; type: in vivo, mouse; conditions: single dose of 10 mg/kg, 2 weeks, nude mice
Description: as §1

[10] = system: HCT116 human colorectal cancer cells; test: Matrigel plug angiogenesis assay, CD31 microvessel density; type: in vivo; conditions: single dose of 5 mg/kg, 14 days
Description: (§2) Matrigel plug angiogenesis assay was conducted in the presence of deglyco C1 IgG or bevacizumab with a single dose of 5 mg/kg or the absence thereof using HCT116 human colorectal cancer cells and bevacizumab-applied HCT116 human colorectal cancer cells (HCT116 and HCT116/Beva). 14 days later, the Matrigel plug was removed, and immunohistochemistry was conducted on CD31 and microvascular markers. A microvessel density was measured by quantifying CD31 positive per field in an image each obtained by a confocal microscope.

[11] = system: HCT116/Beva cells; test: as above; type: in vivo; conditions: single dose of 5 mg/kg, 14 days
Description: as §2

B1: deglyco C1 IgG: deglycosylated clone 1 IgG; light chain CDR1 TGSSSNIGRCGVT (SEQ ID NO: 2), N32R/N33C/S34G (antibody, V domains shown)
VH: EVQLVESGGGLVQPGGSLRLSCAVSGFTFSGYDMSWIRQAPGKGLEWVAGIYPDGGNTYYADSVKGRFTISRDDSKNTFYLQMNSLRAEDTAVYYCARGATWWVLGPFDYWGQGTLVTVSS
VL: DIQLTQSPSSLSASVGDRVTITCTGSSSNIGRCGVTWYQQKPGKAPKLLIYADSHRPSGVPSRFSGSGSGTDFTLTISSLQPEDFATYYCGAWDDSLSGYVFGQGTKVEIKR
With B1 the “Final um, After φ” value [1] was 4.821 mg, the “Final um, Before φ” value [1] was 4.859 mg and the “Fraction1, After φ” value [1] was 0.009 mg. The “Fraction1, Before φ” value [1] was 0.011 mg, the “Fraction2, After φ” value [1] was 3.763 mg and the “Fraction2, Before φ” value [1] was 3.792 mg. For the same molecule, the “Fraction3, After φ” value [1] was 0.921 mg, the “Fraction3, Before φ” value [1] was 0.938 mg and the “Fraction4, After φ” value [1] was 0.128 mg. The “Fraction4, Before φ” value [1] was 0.129 mg, the “inhibition of clec14a-mediated cell-cell contacts (cell aggregates)” value [2] was “inhibitory efficacy” and the “suppression of interaction between hclec14-CTLD and hclec14a-ECD” value [3] was “directly suppressed”. The “viability of HUVECs” value [4] was “did not exhibit cytotoxic effects”, the VEGF-dependent tube formation [5] was “removed VEGF-dependent tube formation significantly and almost perfectly” and the “hemoglobin content (microvessel formation)” value [6] was “significantly reduced a hemoglobin content”. For the same molecule, the “hemoglobin content, CFPAC-1-derived” value [7] was “significantly reduced hemoglobin”, the “hemoglobin content, SNU182-derived” value [8] was “significantly reduced hemoglobin” and the “hemoglobin content, U87-derived” value [9] was “significantly reduced hemoglobin”. For the same molecule, the “microvessel formation (CD31 positive per field), HCT116” value [10] was “significantly reduced microvessel formation ability” and the “microvessel formation (CD31 positive per field), HCT116/Beva” value [11] was “significantly suppressed”.
